The text below walks through data of publication PMC8748714 (2022).

The chains are these.
B1: unnamed (parent)
chain 1: HSQGTFTSDYSKYLDSRRAQDFVQWLMNTKRNRNNIA
chain 2: RPQGATVSLWETVQKWREYRRQCQRSLTEDPPPATDLFCNRTFDEYACWPDGEPGSFVNVSCPWYLPWASSVPQGHVYRFCTAEGLWLQKDNSSLPWRDLSECEESKRGERSSPEEQLLFLYIIYTVGYALSFSALVIASAILLGFRHLHCTRNYIHLNLFASFILRALSVFIKDAALKWMYSTAAQQHQWDGLLSYQDSLSCRLVFLLMQYCVAANYYWLLVEGVYLYTLLAFSVLSEQWIFRLYVSIGWGVPLLFVVPWGIVKYLYEDEGCWTRNSNMNYWLIIRLPILFAIGVNFLIFVRVICIVVSKLKANLMCKTDIKCRLAKSTLTLIPLLGTHEVIFAFVMDEHARGTLRFIKLFTELSFTSFQGLMVAILYCFVNNEVQLEFRKSWERWRLEHLHIQRDSSMKPLKCPTSSLSSGATAGSSMYTATCQASCS

In the first assay the parent is B1. Briefly: radioligand competition binding on whole cells. The settings on record: with partner chain of the complex shown;; read off a plot. In general terms: In a radioligand displacement assay an active substance lowers the binding of a labelled ligand.
With chain 2 E364A, the log10 ratio is -0.85 pIC50 ΔWT. Take chain 2 W274A: the log10 ratio was -0.3 pIC50 ΔWT.

Variants of B1 are the subject of the next assay. Briefly: radioligand competition binding on whole cells. Particulars: with partner chain of the complex shown;; read off a plot. The source holds these as a separate data set.
For the variant chain 2 R167A, the log10 ratio amounted to 0.1 pIC50 ΔWT.

chain 2 W274A: the log10 ratio is -0.4 pIC50 ΔWT. Still for that read-out and setting: next, chain 2 E341A: 0.3 pIC50 ΔWT.

In the case of chain 2 K174A, the log10 ratio is -1.9 pIC50 ΔWT. Still for that read-out and setting: for chain 2 N217A the value was 0.3 pIC50 ΔWT.
